How the values were obtained:
Activin AC [1] = target: T1, Activin AC (human, UniProt P55103 237-352); experiment: SPR (Biacore), mAb captured on anti-Fc, Activin AC injected, 37 C
T1 construct: Heterodimer of one betaA and one betaC subunit; bought (R&D Systems #4879-AC)
T1 sequence 1: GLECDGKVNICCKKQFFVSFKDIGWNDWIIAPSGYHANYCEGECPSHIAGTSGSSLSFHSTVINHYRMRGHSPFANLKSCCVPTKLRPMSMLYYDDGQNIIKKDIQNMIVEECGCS
T1 sequence 2: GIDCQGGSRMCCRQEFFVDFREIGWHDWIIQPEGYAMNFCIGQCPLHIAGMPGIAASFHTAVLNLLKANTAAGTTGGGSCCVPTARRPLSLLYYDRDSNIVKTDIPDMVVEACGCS
Experimental: (§1) Antibody-antigen association was monitored for 240 seconds while dissociation in buffer was monitored for 600 seconds. Kinetic association and dissociation rate constants were determined by processing and fitting the data using Scrubber software version 2.0c. Binding equilibrium dissociation constants (KD) and dissociative half-lives (t_{1/2}) were then calculated from the kinetic rate constants as: KD (M)=kd/kₐ and t_{1/2} (min)=[ln 2/(60*kd)]. (NB=no binding observed under the conditions used; NT=not tested).

Activin AC [2] = target: T1, Activin AC; experiment: cell-based or functional assay
Activin A = target: T2, Activin A (human, UniProt P08476 311-426); experiment: cell-based or functional assay
T2 sequence: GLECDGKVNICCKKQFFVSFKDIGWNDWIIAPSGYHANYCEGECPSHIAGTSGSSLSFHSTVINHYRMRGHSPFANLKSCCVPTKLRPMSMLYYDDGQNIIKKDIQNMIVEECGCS

Activin B = target: T3, Activin B (human, UniProt P09529 293-407); experiment: cell-based or functional assay
T3 chain: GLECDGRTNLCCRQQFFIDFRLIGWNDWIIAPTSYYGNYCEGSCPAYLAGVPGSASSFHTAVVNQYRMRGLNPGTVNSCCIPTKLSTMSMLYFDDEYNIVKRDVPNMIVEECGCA

Activin AB [3] = target: T4, Activin AB (human, UniProt P08476 311-426; P09529 293-407); experiment: cell-based or functional assay
T4 chain 1: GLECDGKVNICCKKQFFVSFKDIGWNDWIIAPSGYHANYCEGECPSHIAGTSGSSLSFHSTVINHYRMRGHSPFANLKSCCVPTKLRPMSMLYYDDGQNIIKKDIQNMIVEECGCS
T4 chain 2: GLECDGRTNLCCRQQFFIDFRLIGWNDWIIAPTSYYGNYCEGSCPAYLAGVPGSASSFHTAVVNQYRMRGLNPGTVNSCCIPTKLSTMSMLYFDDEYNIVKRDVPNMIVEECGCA

Activin AB [4] = target: T4, Activin AB; experiment: SPR (Biacore), mAb captured on anti-Fc, Activin AB injected, 37 C
Experimental: as §1

Activin AC [5] = target: T1, Activin AC; experiment: SPR (Biacore), mAb captured on anti-Fc, Activin AC injected, 25 C
Experimental: as §1

Activin AB [6] = target: T4, Activin AB; experiment: SPR (Biacore), mAb captured on anti-Fc, Activin AB injected, 25 C
Experimental: as §1

[7] = target: T5, Activin A (homodimer of two inhibin βA subunits; R&D Systems, #338-AC) (human, UniProt P08476 311-426); experiment: SPR blocking: 5 nM Activin A + 0.94 nM binder over hActRIIB-hFc (Control 4) surface
T5 construct: Bought protein; also called inhibin-βA dimer
T5 sequence: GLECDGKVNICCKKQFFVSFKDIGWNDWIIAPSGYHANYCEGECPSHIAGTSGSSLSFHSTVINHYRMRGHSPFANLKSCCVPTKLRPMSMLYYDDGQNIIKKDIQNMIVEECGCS

[8] = target: T5, Activin A (homodimer of two inhibin βA …); experiment: SPR blocking: 5 nM Activin A + 15 nM binder over Follistatin-288 surface
Experimental: (§2) The binding signal (RU) was measured at 150 seconds after the start of the injection, and this signal was subtracted by the measured RU value for a negative control reference surface to determine the specific binding signal.

[9] = target: T5, Activin A (homodimer of two inhibin βA …); experiment: SPR blocking: 5 nM Activin A + 30 nM binder over hActRIIA-hFc surface
Experimental: as §2

[10] = target: T5, Activin A (homodimer of two inhibin βA …); experiment: SPR blocking: 5 nM Activin A + 1.88 nM binder over Follistatin-288 surface
Experimental: as §2

[11] = target: T5, Activin A (homodimer of two inhibin βA …); experiment: SPR blocking: 5 nM Activin A + 7.50 nM binder over hActRIIA-hFc surface
Experimental: as §2

[12] = target: T5, Activin A (homodimer of two inhibin βA …); experiment: SPR blocking: 5 nM Activin A + 1.88 nM binder over hActRIIB-hFc (Control 4) surface
Experimental: as §2

[13] = target: T5, Activin A (homodimer of two inhibin βA …); experiment: SPR blocking: 5 nM Activin A + 1.88 nM binder over hActRIIA-hFc surface
Experimental: as §2

[14] = target: T5, Activin A (homodimer of two inhibin βA …); experiment: SPR blocking: 5 nM Activin A + 3.75 nM binder over Follistatin-288 surface
Experimental: as §2

[15] = target: T5, Activin A (homodimer of two inhibin βA …); experiment: SPR blocking: 5 nM Activin A + 0.00 nM binder over hActRIIA-hFc surface
Experimental: as §2

[16] = target: T5, Activin A (homodimer of two inhibin βA …); experiment: SPR blocking: 5 nM Activin A + 0.94 nM binder over Follistatin-288 surface
Experimental: as §2

[17] = target: T5, Activin A (homodimer of two inhibin βA …); experiment: SPR blocking: 5 nM Activin A + 0.00 nM binder over hActRIIB-hFc (Control 4) surface
Experimental: as §2

[18] = target: T5, Activin A (homodimer of two inhibin βA …); experiment: SPR blocking: 5 nM Activin A + 15 nM binder over hActRIIB-hFc (Control 4) surface
[19] = target: T5, Activin A (homodimer of two inhibin βA …); experiment: SPR blocking: 5 nM Activin A + 60 nM binder over hActRIIB-hFc (Control 4) surface
Experimental: as §2

[20] = target: T5, Activin A (homodimer of two inhibin βA …); experiment: SPR blocking: 5 nM Activin A + 60 nM binder over Follistatin-288 surface
Experimental: as §2

[21] = target: T5, Activin A (homodimer of two inhibin βA …); experiment: SPR blocking: 5 nM Activin A + 30 nM binder over Follistatin-288 surface
Experimental: as §2

[22] = target: T5, Activin A (homodimer of two inhibin βA …); experiment: SPR blocking: 5 nM Activin A + 3.75 nM binder over hActRIIA-hFc surface
Experimental: as §2

[23] = target: T5, Activin A (homodimer of two inhibin βA …); experiment: SPR blocking: 5 nM Activin A + 0 nM binder over Follistatin-288 surface
Experimental: as §2

[24] = target: T5, Activin A (homodimer of two inhibin βA …); experiment: SPR blocking: 5 nM Activin A + 15 nM binder over hActRIIA-hFc surface
Experimental: as §2

[25] = target: T5, Activin A (homodimer of two inhibin βA …); experiment: SPR blocking: 5 nM Activin A + 60 nM binder over hActRIIA-hFc surface
Experimental: as §2

[26] = target: T5, Activin A (homodimer of two inhibin βA …); experiment: SPR blocking: 5 nM Activin A + 7.5 nM binder over Follistatin-288 surface
Experimental: as §2

[27] = target: T5, Activin A (homodimer of two inhibin βA …); experiment: SPR blocking: 5 nM Activin A + 7.50 nM binder over hActRIIB-hFc (Control 4) surface
[28] = target: T5, Activin A (homodimer of two inhibin βA …); experiment: SPR blocking: 5 nM Activin A + 30 nM binder over hActRIIB-hFc (Control 4) surface
Experimental: as §2

[29] = target: T5, Activin A (homodimer of two inhibin βA …); experiment: SPR blocking: 5 nM Activin A + 3.75 nM binder over hActRIIB-hFc (Control 4) surface
Experimental: as §2

[30] = target: T5, Activin A (homodimer of two inhibin βA …); experiment: SPR blocking: 5 nM Activin A + 0.94 nM binder over hActRIIA-hFc surface
Experimental: as §2

B1: H4H10440P2 (antibody, human IgG4, V domains shown)
VH: EVQLVESGGGVVQPGGSLRLSCAASTFTFDDFAMHWVRQAPGKGLEWVSLITGDGGSTYYADPVKGRFTISRDNSKNSLYLQMNSLRTEDTALYYCVKDWWIAARPDYYYYGMDVWGQGTTVTVSS
VL: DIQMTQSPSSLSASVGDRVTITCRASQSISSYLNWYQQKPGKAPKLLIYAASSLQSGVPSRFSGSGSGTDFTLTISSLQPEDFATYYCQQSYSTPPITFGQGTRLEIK
B1 was tested, and the “50 nM Ag Bound (RU)” value (Activin AC [1]) was 13.3 RU, the Kd (Activin AC [1]) was 1050 pM and the koff (Activin AC [1]) was 0.000755 s⁻¹. The kon (Activin AC [1]) was 718000 M⁻¹ s⁻¹, the t1/2 (Activin AC [1]) was 15.3 min and the “IC50 [M], inhibition of 4 nM Activin AC in A204/CAGAx12-Luc Smad2/3-luciferase bioassay” value (Activin AC [2]) was 7.5e-10 M. For the same binder, the “IC50 [M], inhibition of 100 pM Activin A in A204/CAGAx12-Luc Smad2/3-luciferase bioassay” value (Activin A) was 2.8e-10 M, the “IC50 [M], inhibition of 50 pM Activin B in A204/CAGAx12-Luc Smad2/3-luciferase bioassay” value (Activin B) was 5.2e-09 M and the “IC50 [M], inhibition of 30 pM Activin AB in A204/CAGAx12-Luc Smad2/3-luciferase bioassay” value (Activin AB [3]) was 4.3e-10 M. The “50 nM Ag Bound (RU)” value (Activin AB [4]) was 17.7 RU, the Kd (Activin AB [4]) was 314 pM and the koff (Activin AB [4]) was 0.00163 s⁻¹. The kon (Activin AB [4]) was 5.2e+06 M⁻¹ s⁻¹, the t1/2 (Activin AB [4]) was 7.1 min and the “50 nM Ag Bound (RU)” value (Activin AC [5]) was 11.8 RU. For the same binder, the Kd (Activin AC [5]) was 442 pM, the koff (Activin AC [5]) was 0.000227 s⁻¹ and the kon (Activin AC [5]) was 513000 M⁻¹ s⁻¹. For the same binder, the t1/2 (Activin AC [5]) was 50.8 min, the “50 nM Ag Bound (RU)” value (Activin AB [6]) was 15.5 RU and the Kd (Activin AB [6]) was 177 pM. It also gave a koff (Activin AB [6]) of 0.000526 s⁻¹, a kon (Activin AB [6]) of 2.97e+06 M⁻¹ s⁻¹ and a t1/2 (Activin AB [6]) of 22 min.

B2: H4H10433P2 (antibody, human IgG4, V domains shown)
VH: EVQLVESGGGLVQAGRSLRLSCEASGFTFDDYGMHWVRQGPGKGLEWVSGISWNSGNIDYADSVKGRFTISRDNAKTSLYLQMNSLKTDDTALYFCAKDAVGFNWNYFLFDYWGQGTLVTVSS
VL: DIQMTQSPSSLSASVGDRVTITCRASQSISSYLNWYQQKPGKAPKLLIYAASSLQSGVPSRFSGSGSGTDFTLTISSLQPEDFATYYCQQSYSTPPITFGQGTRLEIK
With B2 the “IC50 [M], inhibition of 100 pM Activin A in A204/CAGAx12-Luc Smad2/3-luciferase bioassay” value (Activin A) was 1.5e-10 M and the “IC50 [M], inhibition of 50 pM Activin B in A204/CAGAx12-Luc Smad2/3-luciferase bioassay” value (Activin B) was 1e-07 M.

B3: H4H10423P (antibody, human IgG4, V domains shown)
VH: QVQLQQSGPGLLKPSQTLSLTCAISGDSVSSNSAAWSWIRQSPSRGLEWLGRTYYRANWFNDYALSVKSRITINPVTSTNHFSLQLHSVTPEDTAVYYCAREGALGYYFDSWGQGTLVTVSS
VL: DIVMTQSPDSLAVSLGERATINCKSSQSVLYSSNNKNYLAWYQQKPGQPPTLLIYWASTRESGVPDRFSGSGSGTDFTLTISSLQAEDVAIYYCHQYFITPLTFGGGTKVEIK
notes: H4H prefix means human IgG4 Fc
With B3 the “% bound RU w/no inhibitor” value [7] was 93%, the “% bound RU w/no inhibitor” value [8] was 96% and the “% bound RU w/no inhibitor” value [9] was 114%. The “% bound RU w/no inhibitor” value [10] was 122%, the “% bound RU w/no inhibitor” value [11] was 110% and the “% bound RU w/no inhibitor” value [12] was 78%. For the same binder, the “% bound RU w/no inhibitor” value [13] was 114%, the “% bound RU w/no inhibitor” value [14] was 103% and the “% bound RU w/no inhibitor” value [15] was 100%. The “% bound RU w/no inhibitor” value [16] was 120%, the “% bound RU w/no inhibitor” value [17] was 100% and the “% bound RU w/no inhibitor” value [18] was 42%. For the same binder, the “% bound RU w/no inhibitor” value [19] was 41%, the “% bound RU w/no inhibitor” value [20] was 93% and the “% bound RU w/no inhibitor” value [21] was 94%. For the same binder, the “% bound RU w/no inhibitor” value [22] was 111%, the “% bound RU w/no inhibitor” value [23] was 100% and the “% bound RU w/no inhibitor” value [24] was 112%. The “% bound RU w/no inhibitor” value [25] was 116%, the “% bound RU w/no inhibitor” value [26] was 97% and the “% bound RU w/no inhibitor” value [27] was 42%. The “% bound RU w/no inhibitor” value [28] was 41%, the “% bound RU w/no inhibitor” value [29] was 47% and the “% bound RU w/no inhibitor” value [30] was 112%.

From patent publication US20150037339A1 (Regeneron, published 2015)
